# Data from US20210275683A1 (SILVERBACK THERAPEUTICS, published 2021).
# Key:
# [1] = molecular target: T1, human Nectin-4 on transfected HEK-293 cells (human, UniProt Q96NY8 32-510); assay: flow cytometry on HEK-293 cells transfected with human Nectin-4, anti-huIgG1-PE secondary, MFI (Geo Mean)
# T1 construct: whole, on cells; also called HEK-293 cells transfected with human Nectin-4; Nectin-4-expressing HEK-293 cells
# T1 sequence (looked up): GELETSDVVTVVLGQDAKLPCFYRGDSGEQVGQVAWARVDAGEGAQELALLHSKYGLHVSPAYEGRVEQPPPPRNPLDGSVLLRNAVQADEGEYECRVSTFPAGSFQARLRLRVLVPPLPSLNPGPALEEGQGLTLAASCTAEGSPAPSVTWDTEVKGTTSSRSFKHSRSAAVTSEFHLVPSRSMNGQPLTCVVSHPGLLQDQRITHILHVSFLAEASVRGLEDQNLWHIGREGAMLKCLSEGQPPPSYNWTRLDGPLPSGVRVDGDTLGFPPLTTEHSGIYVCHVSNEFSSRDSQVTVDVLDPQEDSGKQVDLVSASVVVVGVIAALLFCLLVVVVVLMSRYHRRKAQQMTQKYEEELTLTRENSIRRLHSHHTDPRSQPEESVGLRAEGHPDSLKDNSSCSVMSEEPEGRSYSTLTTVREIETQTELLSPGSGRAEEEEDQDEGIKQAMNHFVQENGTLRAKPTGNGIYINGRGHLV
# Experimental: (§1) After incubations, cells were washed with FW and then analyzed on a flow cytometer.
# [2] = molecular target: T2, Nectin-4 on MDA-MB-175-VII tumor cells (UniProt Q96NY8 32-510, limits assumed); assay: flow cytometry on MDA-MB-175-VII cells (Nectin-4 expressing tumor cell line), anti-huIgG1-PE secondary, MFI (Geo Mean)
# T2 construct: whole, on cells
# T2 sequence (looked up): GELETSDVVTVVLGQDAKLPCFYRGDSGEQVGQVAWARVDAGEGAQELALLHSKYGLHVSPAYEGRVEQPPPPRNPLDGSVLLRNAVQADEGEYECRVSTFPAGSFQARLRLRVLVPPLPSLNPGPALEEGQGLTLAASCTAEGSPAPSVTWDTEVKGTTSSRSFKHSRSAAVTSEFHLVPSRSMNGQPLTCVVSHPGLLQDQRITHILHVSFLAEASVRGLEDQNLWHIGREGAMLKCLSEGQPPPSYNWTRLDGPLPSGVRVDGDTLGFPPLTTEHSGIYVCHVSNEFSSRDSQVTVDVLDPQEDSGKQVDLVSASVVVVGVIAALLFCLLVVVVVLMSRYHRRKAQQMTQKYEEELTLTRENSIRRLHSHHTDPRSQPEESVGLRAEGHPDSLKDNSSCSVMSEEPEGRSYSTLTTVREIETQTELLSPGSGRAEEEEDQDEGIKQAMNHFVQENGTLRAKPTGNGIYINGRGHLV
# Experimental: as §1
# [3] = molecular target: T2, Nectin-4 on MDA-MB-175-VII tumor cells; assay: cell-based or functional assay
# [4] = molecular target: T3, cynomolgus Nectin-4 on transfected HEK-293 cells (cynomolgus, UniProt A0A2K5WES1 32-510); assay: flow cytometry on HEK-293 cells transfected with cynomolgus Nectin-4, anti-huIgG1-PE secondary, MFI (Geo Mean)
# T3 construct: whole, on cells; also called HEK-293 cells transfected with cynomolgus Nectin-4
# T3 sequence: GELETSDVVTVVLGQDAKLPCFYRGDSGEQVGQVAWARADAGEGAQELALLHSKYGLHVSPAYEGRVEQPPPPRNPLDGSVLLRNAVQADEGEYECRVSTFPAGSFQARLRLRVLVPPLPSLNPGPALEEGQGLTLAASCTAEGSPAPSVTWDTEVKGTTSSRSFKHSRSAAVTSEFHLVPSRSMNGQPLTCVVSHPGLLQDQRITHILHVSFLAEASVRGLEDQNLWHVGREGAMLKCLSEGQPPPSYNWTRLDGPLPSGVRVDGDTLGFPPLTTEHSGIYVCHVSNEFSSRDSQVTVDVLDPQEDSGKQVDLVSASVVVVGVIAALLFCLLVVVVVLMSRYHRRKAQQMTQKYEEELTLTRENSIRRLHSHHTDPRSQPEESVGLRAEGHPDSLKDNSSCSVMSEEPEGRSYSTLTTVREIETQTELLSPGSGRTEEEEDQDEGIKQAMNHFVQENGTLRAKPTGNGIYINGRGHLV
# Experimental: as §1
# huNectin-4 ECD-hFc = molecular target: T4, huNectin-4 ECD-hFc (human, UniProt Q96NY8 32-349); assay: BLI (Octet Red 96), biotinylated hzD6.2C on streptavidin biosensors, dimeric ECD-hFc in solution, 1:1 model, KD with avidity
# T4 construct: extracellular domain; Bought (Sino Biological); also called hFc-tagged human Nectin-4 ECD dimeric protein; human Nectin-4 ECD; not shown: human Fc tag
# T4 sequence (looked up): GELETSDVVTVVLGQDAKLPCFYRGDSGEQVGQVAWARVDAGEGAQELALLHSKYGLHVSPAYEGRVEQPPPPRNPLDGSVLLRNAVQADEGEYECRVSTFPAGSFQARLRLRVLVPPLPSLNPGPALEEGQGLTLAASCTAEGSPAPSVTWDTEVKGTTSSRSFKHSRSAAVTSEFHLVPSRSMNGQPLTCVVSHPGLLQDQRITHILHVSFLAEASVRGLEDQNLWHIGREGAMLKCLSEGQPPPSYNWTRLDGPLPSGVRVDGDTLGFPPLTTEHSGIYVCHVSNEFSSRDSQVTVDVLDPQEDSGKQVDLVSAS
# Experimental: (§2) Analysis of hzD6.2C monoclonal antibody (mAb) for binding to human Nectin-1, Nectin-2, Nectin-3, and Nectin-4 extracellular domains (ECDs) was performed using Octet® Red 96 instrument (ForteBio, Inc.). Biotinylated hzD6.2C mAb was immobilized on streptavidin biosensors and incubated with hFc-tagged human Nectin-1, -2, -3, and -4 ECD dimeric proteins (Sino Biological) at varying concentrations ranging from 1.2 nM to 300 nM in PBS/1% BSA/0.2% Tween 20. The experimental measurements were performed as follows: (1) baseline acquisition (30 s); (2) biotinylated hzD6.2C mAb loading onto streptavidin biosensor (120 s); (3) second baseline acquisition (30 s); (4) association of interacting dimeric Nectin 1/2/3/4 ECD proteins for kₒₙ measurement (90 s); and (5) dissociation of interacting dimeric ECDs for koff measurement (180 s). The interacting dimeric Nectin ECD proteins were used at 5-6 concentrations of 3-fold concentration series. Data were analyzed using Octet® Data Analysis Sofware 9.0 (ForteBio, Inc.) and fitted to the 1:1 binding model. Equilibrium dissociation constants (KD) were calculated by the ratio of […].
# huNectin-2 ECD-hFc = molecular target: T5, huNectin-2 ECD-hFc (human, UniProt Q92692 32-360); assay: BLI (Octet Red 96), biotinylated hzD6.2C on streptavidin biosensors, dimeric ECD-hFc in solution
# T5 construct: extracellular domain; Bought (Sino Biological); also called hFc-tagged human Nectin-2 ECD dimeric protein; not shown: human Fc tag
# T5 sequence (looked up): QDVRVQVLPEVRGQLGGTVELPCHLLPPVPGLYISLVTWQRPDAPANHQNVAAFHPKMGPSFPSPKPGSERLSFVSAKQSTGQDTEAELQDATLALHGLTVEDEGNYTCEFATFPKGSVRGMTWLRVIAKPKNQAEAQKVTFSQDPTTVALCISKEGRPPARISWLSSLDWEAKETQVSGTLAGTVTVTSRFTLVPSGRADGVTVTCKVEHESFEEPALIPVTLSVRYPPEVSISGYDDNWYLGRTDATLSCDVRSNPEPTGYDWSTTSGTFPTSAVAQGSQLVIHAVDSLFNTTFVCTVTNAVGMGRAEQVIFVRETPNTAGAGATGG
# Experimental: as §2
# huNectin-3 ECD-hFc = molecular target: T6, huNectin-3 ECD-hFc (human, UniProt Q9NQS3 58-404); assay: as above
# T6 construct: extracellular domain; Bought (Sino Biological); also called hFc-tagged human Nectin-3 ECD dimeric protein; not shown: human Fc tag
# T6 sequence (Q9NQS3 58-404): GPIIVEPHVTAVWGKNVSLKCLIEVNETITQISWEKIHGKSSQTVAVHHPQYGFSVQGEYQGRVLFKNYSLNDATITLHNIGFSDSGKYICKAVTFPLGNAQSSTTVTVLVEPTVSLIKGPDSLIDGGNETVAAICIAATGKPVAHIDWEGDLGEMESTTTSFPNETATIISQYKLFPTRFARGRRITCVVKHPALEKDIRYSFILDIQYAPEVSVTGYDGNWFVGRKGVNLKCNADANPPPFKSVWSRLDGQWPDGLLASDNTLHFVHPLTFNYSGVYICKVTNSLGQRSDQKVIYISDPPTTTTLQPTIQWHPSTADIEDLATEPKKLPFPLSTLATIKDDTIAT
# Experimental: as §2
# huNectin-1 ECD-hFc = molecular target: T7, huNectin-1 ECD-hFc (human, UniProt Q15223 31-355); assay: as above
# T7 construct: extracellular domain; Bought (Sino Biological); also called hFc-tagged human Nectin-1 ECD dimeric protein; not shown: human Fc tag
# T7 sequence (looked up): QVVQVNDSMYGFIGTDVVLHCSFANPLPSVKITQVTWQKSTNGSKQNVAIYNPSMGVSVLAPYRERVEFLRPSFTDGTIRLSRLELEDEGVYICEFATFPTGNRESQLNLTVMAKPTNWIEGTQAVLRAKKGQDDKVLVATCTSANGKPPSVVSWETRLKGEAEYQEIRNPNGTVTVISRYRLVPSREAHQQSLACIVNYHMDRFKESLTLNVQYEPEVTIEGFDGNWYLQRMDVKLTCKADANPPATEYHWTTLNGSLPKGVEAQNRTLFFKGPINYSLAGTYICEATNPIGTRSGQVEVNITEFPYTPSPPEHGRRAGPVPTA
# Experimental: as §2
Binder,EC50 [1],EC50 [2],"TNF-α production from human PBMCs co-cultured with MDA-MB-175-VII cells, EC50 [3]",EC50 [4],Kd (huNectin-4 ECD-hFc),binding result (huNectin-2 ECD-hFc),binding result (huNectin-3 ECD-hFc),binding result (huNectin-1 ECD-hFc)
"hzD6.2C-Compound 2.14 (anti-Nectin-4-TLR8 agonist immunoconjugate) (antibody, V domains shown, hzD6.2C conjugated to linker-TLR8 agonist Compound 2.14) VH: EVQLVESGGGLVQPGGSLRLSCAASGFTFSNYDMSWVRQAPGKGLEWVATISSGGSYTYYVDSVKGRFTISRDNAKNSLYLQMNSLRAEDTAVYYCARQELGSYYAMDYWGQGTTVTVSS VL: DIVMTQTPLSLPVTPGEPASISCRSSQSIVHSNANTYLEWYLQKPGQSPQLLIYKVSNRFSGVPDRFSGSGSGTDFTLKISRVEAEDVGVYYCFQGSHVPYTFGGGTKVEIKR",0.034 µg/mL,0.0095 µg/mL,0.37 nM,0.016 µg/mL,,,,
"humanized D6C mAb with hzD6.2C VL (G34A), human IgG1 / human kappa (antibody, V domains shown, also called hzD6.2C mAb) VH: EVQLVESGGGLVQPGGSLRLSCAASGFTFSNYDMSWVRQAPGKGLEWVATISSGGSYTYYVDSVKGRFTISRDNAKNSLYLQMNSLRAEDTAVYYCARQELGSYYAMDYWGQGTTVTVSS VL: DIVMTQTPLSLPVTPGEPASISCRSSQSIVHSNANTYLEWYLQKPGQSPQLLIYKVSNRFSGVPDRFSGSGSGTDFTLKISRVEAEDVGVYYCFQGSHVPYTFGGGTKVEIKR",0.014 µg/mL,0.012 µg/mL,,0.017 µg/mL,< 0.001 nM,no binding (tested: 1.2 nM to 300 nM),no binding (tested: 1.2 nM to 300 nM),no binding (tested: 1.2 nM to 300 nM)
"hzD6.1C-Compound 2.14 (anti-Nectin-4-TLR8 agonist immunoconjugate) (antibody, V domains shown, hzD6.1C conjugated to linker-TLR8 agonist Compound 2.14) VH: EVQLVESGGGLVQPGGSLRLSCAASGFTFSNYDMSWVRQAPGKGLEWVATISSGGSYTYYVDSVKGRFTISRDNAKNSLYLQMNSLRAEDTAVYYCARQELGSYYAMDYWGQGTTVTVSS VL: DVVMTQTPLSLPVTPGEPASISCRSSQSIVHSNGNTYLEWYLQKPGQSPQLLIYKVSNRFSGVPDRFSGSGSGTDFTLKISRVEAEDVGVYYCFQGSHVPYTFGGGTKVEIKR",0.069 µg/mL,0.0086 µg/mL,0.33 nM,0.023 µg/mL,,,,
"humanized D6C mAb with hzD6.1C VL (I2V), human IgG1 / human kappa (antibody, V domains shown, also called hzD6.IC) VH: EVQLVESGGGLVQPGGSLRLSCAASGFTFSNYDMSWVRQAPGKGLEWVATISSGGSYTYYVDSVKGRFTISRDNAKNSLYLQMNSLRAEDTAVYYCARQELGSYYAMDYWGQGTTVTVSS VL: DVVMTQTPLSLPVTPGEPASISCRSSQSIVHSNGNTYLEWYLQKPGQSPQLLIYKVSNRFSGVPDRFSGSGSGTDFTLKISRVEAEDVGVYYCFQGSHVPYTFGGGTKVEIKR",0.02 µg/mL,0.0097 µg/mL,,0.016 µg/mL,,,,
"D6C IgG1-Compound 2.14 (parental antibody TLR8 agonist conjugate) (antibody, V domains shown, IgG1) VH: EVMLVESGGALVKPGGSLKLSCVASGFTFSNYDMSWVRQTPEKRLEWVATISSGGSYTYYVDSVKGRFTISRDNARNTLHLQMSSLRSKDTAMYYCARQELGSYYAMDYWGQGTSVTVSS VL: DVVMTQTPLSLPVSLGDQASISCRSSQSIVHSNGNTYLEWYLQKPGQSPKLLIYKVSNRFSGVPDRFSGSGSGTDFTLKISRVEAEDLGVYYCFQGSHVPYTFGGGTKLEIK",0.049 µg/mL,0.011 µg/mL,0.83 nM,0.019 µg/mL,,,,
"D6C parental chimeric anti-Nectin-4 antibody (D6C IgG1) (antibody, V domains shown, Called the parental chimeric antibody; also called chimeric D6C) VH: EVMLVESGGALVKPGGSLKLSCVASGFTFSNYDMSWVRQTPEKRLEWVATISSGGSYTYYVDSVKGRFTISRDNARNTLHLQMSSLRSKDTAMYYCARQELGSYYAMDYWGQGTSVTVSS VL: DVVMTQTPLSLPVSLGDQASISCRSSQSIVHSNGNTYLEWYLQKPGQSPKLLIYKVSNRFSGVPDRFSGSGSGTDFTLKISRVEAEDLGVYYCFQGSHVPYTFGGGTKLEIK",0.03 µg/mL,0.01 µg/mL,,0.018 µg/mL,,,,
